Here are results for four molecules from patent US6787341B2, “Pharmacological targeting of bacterial DNA ligase for treatment and prevention of bacterial infections” (priority 2001, dated 2004).

Experiment [1] concerns E. coli LigA. It counts as biochemical. To be noted: for Nick Joining Activity (% of WT): specific activity by protein titration under steady-state conditions, normalized to wild-type ligase.
Experiment [2] has as its system E. coli LigA. It counts as biochemical. To be noted: for phosphodiester formation at pre-adenylated nick: qualitative, magnesium, no added NAD+. The method, then:
(§1) Reaction mixtures containing 1 pmol of ^32P-labeled nicked DNA-adenylate (AppDNA) and either 8 pmol of wild-type (WT) E. coli ligase, deletion mutants NΔ38 and NΔ78, or the full-length ligase proteins containing the indicated alanine mutations in domain Ia were incubated for 60 min at 22° C. The reaction products were resolved by denaturing PAGE. An autoradiograph of the gel is shown. Control reaction mixtures containing either ^32P-labeled nicked DNA-adenylate (AppDNA) or nicked DNA (pDNA) substrates and no ligase are shown in lanes -. The positions of the pDNA, AppDNA, and ligated 36-mer DNA strands are indicated by arrows on the right. The position of the radiolabeled phosphate of AppDNA is denoted by •. The nicked DNA-adenylate substrate used in the ligation reactions is illustrated at the bottom.
(§2) The nicked DNA-adenylate substrate is illustrated in FIG. 13. The DNA-adenylate ligation reaction mixtures (20 μl) contained 50 mM Tris-HCl (pH 7.5), 5 mM DTT, 5 mM MgCl2, 200 fmol of nicked DNA-adenylate substrate, 2 pmol of wild-type or mutant EcoLigA proteins as specified were incubated at 22° C. The sealing reactions were initiated by adding ligase. Aliquots (20 μl) were withdrawn at the times specified and quenched immediately with EDTA and formamide. The products were resolved by denaturing PAGE and the extents of ligation were determined by scanning the gel with a phosphorimager. The extent of strand joining is plotted as a function of reaction time.
(§3) The third step of the ligation pathway entails attack of the 3′ OH of the nick on the 5′ PO4 of the DNA-adenylate to form a phosphodiester and release AMP. Step 3 of the ligation reaction was assayed using a pre-adenylated nicked DNA substrate labeled with ^32P on the 5′ PO4 of the DNA-adenylate strand (FIG. 13).

The test system of experiment [3] is E. coli LigA. It counts as biochemical. To be noted: qualitative.
The subject of experiment [4] is E. coli LigA. The settings on record: reference 19; cited from earlier work.
In experiment [5] the target is E. coli LigA (Escherichia coli, UniProt P15042). It counts as biochemical. The method, then: as §1, §2, §3

B1: Y35A: E. coli LigA with Tyr35 replaced by alanine (protein, UniProt P15042 1-671, looked up, variant Y35A)
DNA ligase: MESIEQQLTELRTTLRHHEYLYHVMDAPEIPDAEADRLMRELRELETKHPELITPDSPTQRVGAAPLAAFSQIRHEVPMLSLDNVFDEESFLAFNKRVQDRLKNNEKVTWCCELKLDGLAVSILYENGVLVSAATRGDGTTGEDITSNVRTIRAIPLKLHGENIPARLEVRGEVFLPQAGFEKINEDARRTGGKVFANPRNAAAGSLRQLDPRITAKRPLTFFCYGVGVLEGGELPDTHLGRLLQFKKWGLPVSDRVTLCESAEEVLAFYHKVEEDRPTLGFDIDGVVIKVNSLAQQEQLGFVARAPRWAVAFKFPAQEQMTFVRDVEFQVGRTGAITPVARLEPVHVAGVLVSNATLHNADEIERLGLRIGDKVVIRRAGDVIPQVVNVVLSERPEDTREVVFPTHCPVCGSDVERVEGEAVARCTGGLICGAQRKESLKHFVSRRAMDVDGMGDKIIDQLVEKEYVHTPADLFKLTAGKLTGLERMGPKSAQNVVNALEKAKETTFARFLYALGIREVGEATAAGLAAYFGTLEALEAASIEELQKVPDVGIVVASHVHNFFAEESNRNVISELLAEGVHWPAPIVINAEEIDSPFAGKTVVLTGSLSQMSRDDAKARLVELGAKVAGSVSKKTDLVIAGEAAGSKLAKAQELGIEVIDEAEMLRLLGS
With B1, the “Nick Joining Activity (% of WT)” value with E. coli LigA [1] is reported as 2 % of WT. In addition, in the experiment with E. coli LigA [2], the “phosphodiester formation at pre-adenylated nick” value is on record as “catalytically active”. The “ligase adenylation (ligase-AMP formation) with NAD+” value (“ligase adenylation” for short) in the experiment on E. coli LigA [3] is given as “less active”.

B2: D36A: E. coli LigA with Asp36 replaced by alanine (protein, UniProt P15042 1-671, looked up, variant D36A)
DNA ligase: MESIEQQLTELRTTLRHHEYLYHVMDAPEIPDAEYARLMRELRELETKHPELITPDSPTQRVGAAPLAAFSQIRHEVPMLSLDNVFDEESFLAFNKRVQDRLKNNEKVTWCCELKLDGLAVSILYENGVLVSAATRGDGTTGEDITSNVRTIRAIPLKLHGENIPARLEVRGEVFLPQAGFEKINEDARRTGGKVFANPRNAAAGSLRQLDPRITAKRPLTFFCYGVGVLEGGELPDTHLGRLLQFKKWGLPVSDRVTLCESAEEVLAFYHKVEEDRPTLGFDIDGVVIKVNSLAQQEQLGFVARAPRWAVAFKFPAQEQMTFVRDVEFQVGRTGAITPVARLEPVHVAGVLVSNATLHNADEIERLGLRIGDKVVIRRAGDVIPQVVNVVLSERPEDTREVVFPTHCPVCGSDVERVEGEAVARCTGGLICGAQRKESLKHFVSRRAMDVDGMGDKIIDQLVEKEYVHTPADLFKLTAGKLTGLERMGPKSAQNVVNALEKAKETTFARFLYALGIREVGEATAAGLAAYFGTLEALEAASIEELQKVPDVGIVVASHVHNFFAEESNRNVISELLAEGVHWPAPIVINAEEIDSPFAGKTVVLTGSLSQMSRDDAKARLVELGAKVAGSVSKKTDLVIAGEAAGSKLAKAQELGIEVIDEAEMLRLLGS
Consider B2, for which, in the experiment with E. coli LigA [1], the “nick ligation (qualitative)” value is “virtually inert” and the “Nick Joining Activity (% of WT)” value is listed as 0.2 % of WT. Besides, in the experiment on E. coli LigA [2], the “effect on rate or extent (yield) of phosphodiester formation at a pre-adenylated nick” value is recorded as “no effect” and the “phosphodiester formation at pre-adenylated nick” value was “catalytically active”. For the same molecule, the “ligase adenylation” value in the experiment on E. coli LigA [3] is “virtually inert”.

B3: NΔ78: N-terminal deletion of E. coli DNA ligase LigA eliminating domain Ia (protein, UniProt P15042 79-671, looked up, fragment)
chain: MLSLDNVFDEESFLAFNKRVQDRLKNNEKVTWCCELKLDGLAVSILYENGVLVSAATRGDGTTGEDITSNVRTIRAIPLKLHGENIPARLEVRGEVFLPQAGFEKINEDARRTGGKVFANPRNAAAGSLRQLDPRITAKRPLTFFCYGVGVLEGGELPDTHLGRLLQFKKWGLPVSDRVTLCESAEEVLAFYHKVEEDRPTLGFDIDGVVIKVNSLAQQEQLGFVARAPRWAVAFKFPAQEQMTFVRDVEFQVGRTGAITPVARLEPVHVAGVLVSNATLHNADEIERLGLRIGDKVVIRRAGDVIPQVVNVVLSERPEDTREVVFPTHCPVCGSDVERVEGEAVARCTGGLICGAQRKESLKHFVSRRAMDVDGMGDKIIDQLVEKEYVHTPADLFKLTAGKLTGLERMGPKSAQNVVNALEKAKETTFARFLYALGIREVGEATAAGLAAYFGTLEALEAASIEELQKVPDVGIVVASHVHNFFAEESNRNVISELLAEGVHWPAPIVINAEEIDSPFAGKTVVLTGSLSQMSRDDAKARLVELGAKVAGSVSKKTDLVIAGEAAGSKLAKAQELGIEVIDEAEMLRLLGS
B3: the “nick joining activity (prior studies)” value in the experiment on E. coli LigA [4] is recorded as “complete loss”. The “phosphodiester formation at pre-adenylated nick” value in the experiment on E. coli LigA [2] is recorded as “capable of forming a phosphodiester bond”. Moreover, in the experiment with E. coli LigA [5], the “effect on the rate of approach to the endpoint of step 3 reaction” value is recorded as 2 fold. For the same molecule, the “ligase adenylation” value with E. coli LigA [3] is on record as “inert”.

B4: NΔ38: N-terminal deletion of E. coli DNA ligase LigA eliminating part of domain Ia (protein, UniProt P15042 39-671, looked up, fragment)
chain: MRELRELETKHPELITPDSPTQRVGAAPLAAFSQIRHEVPMLSLDNVFDEESFLAFNKRVQDRLKNNEKVTWCCELKLDGLAVSILYENGVLVSAATRGDGTTGEDITSNVRTIRAIPLKLHGENIPARLEVRGEVFLPQAGFEKINEDARRTGGKVFANPRNAAAGSLRQLDPRITAKRPLTFFCYGVGVLEGGELPDTHLGRLLQFKKWGLPVSDRVTLCESAEEVLAFYHKVEEDRPTLGFDIDGVVIKVNSLAQQEQLGFVARAPRWAVAFKFPAQEQMTFVRDVEFQVGRTGAITPVARLEPVHVAGVLVSNATLHNADEIERLGLRIGDKVVIRRAGDVIPQVVNVVLSERPEDTREVVFPTHCPVCGSDVERVEGEAVARCTGGLICGAQRKESLKHFVSRRAMDVDGMGDKIIDQLVEKEYVHTPADLFKLTAGKLTGLERMGPKSAQNVVNALEKAKETTFARFLYALGIREVGEATAAGLAAYFGTLEALEAASIEELQKVPDVGIVVASHVHNFFAEESNRNVISELLAEGVHWPAPIVINAEEIDSPFAGKTVVLTGSLSQMSRDDAKARLVELGAKVAGSVSKKTDLVIAGEAAGSKLAKAQELGIEVIDEAEMLRLLGS
Consider B4, for which, in the experiment on E. coli LigA [4], the “nick joining activity (prior studies)” value is on record as “complete loss”. Also, in the experiment on E. coli LigA [2], the “effect on rate or extent (yield) of phosphodiester formation at a pre-adenylated nick” value is given as “no effect” and the “phosphodiester formation at pre-adenylated nick” value was “capable of forming a phosphodiester bond”. For the same molecule, the “ligase adenylation” value in the experiment with E. coli LigA [3] is “inert”.
